# T1: CD203c (ENPP3) (antigen of the binding assay of FIG. 9B) (Homo sapiens (Human), UniProt O14638 31-875)
# T1 construct: not shown: His tag of the recombinant protein
# T1 sequence: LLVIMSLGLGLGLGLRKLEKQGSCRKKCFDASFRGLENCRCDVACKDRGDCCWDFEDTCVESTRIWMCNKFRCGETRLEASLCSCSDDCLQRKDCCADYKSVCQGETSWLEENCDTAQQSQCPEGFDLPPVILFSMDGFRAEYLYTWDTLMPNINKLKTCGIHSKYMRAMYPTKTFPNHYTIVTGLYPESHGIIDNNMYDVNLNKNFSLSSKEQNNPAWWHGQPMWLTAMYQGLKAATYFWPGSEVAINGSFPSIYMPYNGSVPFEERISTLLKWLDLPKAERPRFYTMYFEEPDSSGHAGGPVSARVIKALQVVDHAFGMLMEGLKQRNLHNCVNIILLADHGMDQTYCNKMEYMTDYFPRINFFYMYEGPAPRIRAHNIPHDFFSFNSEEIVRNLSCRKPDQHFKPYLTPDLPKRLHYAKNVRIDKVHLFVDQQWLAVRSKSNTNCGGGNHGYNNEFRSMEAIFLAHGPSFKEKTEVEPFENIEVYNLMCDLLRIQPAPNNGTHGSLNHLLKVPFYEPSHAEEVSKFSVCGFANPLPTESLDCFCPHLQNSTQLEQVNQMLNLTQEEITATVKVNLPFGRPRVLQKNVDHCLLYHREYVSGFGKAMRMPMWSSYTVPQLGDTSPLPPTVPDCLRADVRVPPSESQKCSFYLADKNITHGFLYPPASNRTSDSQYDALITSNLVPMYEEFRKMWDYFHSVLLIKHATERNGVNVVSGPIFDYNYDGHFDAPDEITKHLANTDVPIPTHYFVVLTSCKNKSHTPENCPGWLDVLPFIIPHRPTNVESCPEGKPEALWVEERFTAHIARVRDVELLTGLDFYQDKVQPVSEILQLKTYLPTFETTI
# T2: biotinylated human CD203c (bio-huCD203c, Acro, Cat. nr. H52H4) (human, UniProt O14638 49-875, limits assumed, biotinylated (site not stated))
# T2 construct: Captured on a Biotin CAPture chip for SPR
# T2 sequence (looked up): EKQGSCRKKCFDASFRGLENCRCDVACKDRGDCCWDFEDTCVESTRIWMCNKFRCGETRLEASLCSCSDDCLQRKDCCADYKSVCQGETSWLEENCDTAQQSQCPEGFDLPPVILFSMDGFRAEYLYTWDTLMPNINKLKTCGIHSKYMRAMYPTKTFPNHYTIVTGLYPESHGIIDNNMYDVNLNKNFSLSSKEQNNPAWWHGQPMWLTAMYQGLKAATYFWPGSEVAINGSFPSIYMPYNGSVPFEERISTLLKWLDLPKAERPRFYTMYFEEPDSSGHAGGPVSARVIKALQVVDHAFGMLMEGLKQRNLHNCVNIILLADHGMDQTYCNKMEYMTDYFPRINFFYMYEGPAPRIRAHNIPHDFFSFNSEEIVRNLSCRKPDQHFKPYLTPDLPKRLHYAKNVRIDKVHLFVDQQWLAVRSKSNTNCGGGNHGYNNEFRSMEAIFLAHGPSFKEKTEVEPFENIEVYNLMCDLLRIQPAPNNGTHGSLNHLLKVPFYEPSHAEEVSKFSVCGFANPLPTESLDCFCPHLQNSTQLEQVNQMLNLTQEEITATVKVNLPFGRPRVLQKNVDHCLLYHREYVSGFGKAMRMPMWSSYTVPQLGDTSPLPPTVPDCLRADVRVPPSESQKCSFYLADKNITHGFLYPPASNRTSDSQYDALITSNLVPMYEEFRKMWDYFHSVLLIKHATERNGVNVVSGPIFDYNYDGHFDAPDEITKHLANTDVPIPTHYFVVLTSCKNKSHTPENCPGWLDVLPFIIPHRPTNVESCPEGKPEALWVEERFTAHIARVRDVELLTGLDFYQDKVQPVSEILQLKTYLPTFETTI
# T3: biotinylated cynomolgus CD203c (bio-cyCD203c, Icosagen) (cynomolgus monkey, UniProt A0A2K5TKP4 31-874, biotinylated (site not stated))
# T3 construct: Captured on a Biotin CAPture chip for SPR; also called cyno CD203c
# T3 sequence: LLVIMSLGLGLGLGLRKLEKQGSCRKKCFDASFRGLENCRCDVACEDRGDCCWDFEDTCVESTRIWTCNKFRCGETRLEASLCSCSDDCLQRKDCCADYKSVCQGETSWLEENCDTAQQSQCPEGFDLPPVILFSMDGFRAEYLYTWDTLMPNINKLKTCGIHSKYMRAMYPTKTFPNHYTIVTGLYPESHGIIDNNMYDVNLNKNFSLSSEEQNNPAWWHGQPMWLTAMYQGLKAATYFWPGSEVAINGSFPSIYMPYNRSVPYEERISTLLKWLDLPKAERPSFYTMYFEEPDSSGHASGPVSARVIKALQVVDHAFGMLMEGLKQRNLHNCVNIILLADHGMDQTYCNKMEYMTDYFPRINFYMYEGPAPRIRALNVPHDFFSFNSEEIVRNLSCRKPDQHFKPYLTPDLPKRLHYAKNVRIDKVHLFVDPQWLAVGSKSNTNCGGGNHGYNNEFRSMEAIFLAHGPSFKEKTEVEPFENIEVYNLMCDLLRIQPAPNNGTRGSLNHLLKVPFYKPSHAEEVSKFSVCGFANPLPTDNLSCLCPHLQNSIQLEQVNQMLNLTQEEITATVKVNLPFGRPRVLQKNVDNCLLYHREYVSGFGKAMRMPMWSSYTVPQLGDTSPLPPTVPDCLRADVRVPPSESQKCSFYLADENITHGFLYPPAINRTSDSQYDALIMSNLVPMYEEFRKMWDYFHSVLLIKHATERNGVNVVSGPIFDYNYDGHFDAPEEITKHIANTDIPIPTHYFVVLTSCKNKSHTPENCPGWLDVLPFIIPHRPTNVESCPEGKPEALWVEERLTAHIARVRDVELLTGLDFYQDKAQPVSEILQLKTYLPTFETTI
# Experiments:
# [1] = biological target: T1, CD203c (ENPP3) (antigen of the binding …); experiment: plate binding assay on Human ENPP3, A450-A630 (ratio corrected)
# [2] = biological target: c-Kit (antigen of the binding assay of FIG. 9A) (Homo sapiens (Human), UniProt P10721 26-524); experiment: plate binding assay on Human c-KIT, A450-A630 (ratio corrected)
# [3] = biological target: T2, biotinylated human CD203c …; experiment: SPR (Biacore), biotinylated CD203c captured on the chip, Fab as analyte 1000 - 7.81 nM; response-versus-concentration fits in FIG. 11A-11C
# Description: (§1) Biotinylated versions of the CD203c proteins were captured on a BiotinCap chip, and the antibodies injected in-solution in 2-fold serial dilutions. An SPR affinity determination assay was carried out on a BIAcore T20 using the conditions described below: [0212] […] Ligand Capture—biotinylated antigen: bio-huCD203c (Acro, Cat. nr. H52H4) and bio-cyCD203c (Icosagen) at 20 nM and 10 nM, respectively, in 1×HBS-EP+pH 7.4, on flow cell 2 over 1 min at 10 μl/min [0215] […] Complete blank assay runs without analyte antibody were included as blank reference. [0216] […] Regeneration: Baseline levels were restored using the regeneration solutions provided in the Biotin CAPture kit [0218] SPR running buffer: 1×HBS-EP+pH 7.4 (Cytiva; cat. nr. BR100669) [0219] Analysis: Data was analyzed using the Biacore Insight Evaluation Software by the steady state affinity model or the 1:1 binding model. Sensorgrams were referenced to flow cell 1 and the 0 nM concentration cycle.
# [4] = biological target: T3, biotinylated cynomolgus CD203c …; experiment: as above
# Description: as §1
# Sequence of c-Kit (antigen of the binding assay of FIG. 9A) (P10721 26-524 limits assumed): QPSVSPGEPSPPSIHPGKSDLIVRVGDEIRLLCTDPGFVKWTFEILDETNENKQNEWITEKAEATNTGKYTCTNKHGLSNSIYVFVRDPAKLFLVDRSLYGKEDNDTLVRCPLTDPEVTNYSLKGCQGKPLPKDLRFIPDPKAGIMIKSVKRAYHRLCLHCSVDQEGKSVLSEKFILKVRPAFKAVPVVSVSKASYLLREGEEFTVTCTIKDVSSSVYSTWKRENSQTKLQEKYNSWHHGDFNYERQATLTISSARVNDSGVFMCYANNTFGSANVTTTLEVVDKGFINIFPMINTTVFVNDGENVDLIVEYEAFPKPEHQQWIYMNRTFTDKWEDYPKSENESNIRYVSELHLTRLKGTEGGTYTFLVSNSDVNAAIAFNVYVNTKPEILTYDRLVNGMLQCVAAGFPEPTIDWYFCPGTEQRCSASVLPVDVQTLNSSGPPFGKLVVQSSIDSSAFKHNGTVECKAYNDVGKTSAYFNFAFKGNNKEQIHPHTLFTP
binding result [1],EC50 (read off the curve) [2] [µg/mL],Kd [3] [nM],Kd [4] [nM],Binder
no binding (tested: 200 µg/ml),~0.1,–,–,"bispecific pair with alternative common light chain VL3: MH1 VH / 2.14_1 VH / VL3 (bispecific antibody, V domains shown) VH 1: QVQLVQSGAEVKKPGASVKVSCKASGYTFTDYYMNWVRQAPGQGLEWMGRIYPGSGNTYYAQKFQGRVTMTRDTSTSTVYMELSSLRSEDTAVYYCARGVYYYDYWGQGTLVTVSS VH 2: QVQLQESGPGLVKPSQTLSLTCTVSGGSISSGGYYWSWIRQHPGKGLEWIGIIYYSGSTYYNPSLKSRVTISVDTSKNQFSLKLNSVTAADTAVFYCARVAIVTTIPGGMDVWGQGTTVTVSS VL: EIVLTQSPDFQSVTPKEKVTITCRASQGIRTNLAWYQQKPDQSPKLLIKAASSLQSGVPSRFSGSGSGTDFTLTINSLEAEDAATYYCQQYNSYPRTFGQGTKVEIK"
–,–,705,387,"1.27-Fab (Fab, V domains shown) VH: EVQLVQSGAEVKKPGESLKISCKGSGYRFTSYWIGWVRQMPGKGLEWMGIIYPGDSDTRYSPSFQGQVTISADKSISTAYLQWSSLKASDTAMYYCARKDYYYYAMDVWGQGTTVTVSS VL: DIQMTQSPSSLSASVGDRVTITCRASQGIRTNLAWFQQKPGKAPKSLIYAASSLQSGVPSRFSGSGSGTDFTLTISSLQPEDFATYYCQQYNSYPRTFGGGTKVEIK"

# Reference: patent US20260028424A1 (GRANULAR THERAPEUTICS, published 2026)
